Laboratory results from article PMC7615710.

How the values were obtained:
PP1α (Homo sapiens) = PP1α (Homo sapiens) (UniProt P62136); conditions: cited from earlier work
[1] = target: Bin1 SH3 domain (513-593) (human) (UniProt O00499); experiment: ITC; 450 or 300 uM NS5A PRR peptide (syringe) titrated to 30 uM ASPP CTD or SH3 domain (cell), 12 °C, 25 mM HEPES pH 7.5, 150 mM NaCl, 500 uM TCEP; 25 steps of 10 ul; AB hetero association model (SEDPHAT)
Sequence of Bin1 SH3 domain (513-593) (human) (O00499 513-593): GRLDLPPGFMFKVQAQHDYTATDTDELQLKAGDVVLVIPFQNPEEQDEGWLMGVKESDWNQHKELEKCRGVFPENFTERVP

Sequence of PP1α (Homo sapiens) (P62136 2-330): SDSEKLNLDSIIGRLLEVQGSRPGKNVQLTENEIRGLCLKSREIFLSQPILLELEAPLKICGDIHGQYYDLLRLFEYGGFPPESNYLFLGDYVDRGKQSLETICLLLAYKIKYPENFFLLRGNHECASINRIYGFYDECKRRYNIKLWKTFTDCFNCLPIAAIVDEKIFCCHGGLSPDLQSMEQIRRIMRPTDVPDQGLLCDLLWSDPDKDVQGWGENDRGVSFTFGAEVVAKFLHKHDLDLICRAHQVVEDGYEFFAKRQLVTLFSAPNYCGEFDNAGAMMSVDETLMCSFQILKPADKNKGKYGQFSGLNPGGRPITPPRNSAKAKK
Sequence of ASPP2 SH3 (Q13625 1054-1122): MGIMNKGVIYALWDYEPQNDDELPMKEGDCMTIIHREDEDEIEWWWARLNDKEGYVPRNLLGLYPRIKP

Substance	Kd (PP1α (Homo sapiens))	Kd [1]
ASPP2 SH3 (from UniProt Q13625)	140 nM	–
HCV [1a.1] NS5A PRR peptide (peptide; other documents disagree on this pair)	–	30.3 nM
